# Test results: article PMC9274624
# Legend:
# Assay in all cases: SPR
# [1] = target: alpaca ACE2 extracellular domain (residues 1-740) fused with the Fc domain of mouse IgG (alpaca)
# [2] = target: big-eared horseshoe bat ACE2 extracellular domain (residues 1-740) fused with the Fc domain of mouse IgG (big-eared horseshoe bat)
# [3] = target: fox ACE2 extracellular domain (residues 1-740) fused with the Fc domain of mouse IgG (fox)
# [4] = target: fulvous fruit bat ACE2 extracellular domain (residues 1-740) fused with the Fc domain of mouse IgG (fulvous fruit bat)
# [5] = target: goat ACE2 extracellular domain (residues 1-740) fused with the Fc domain of mouse IgG (goat)
# [6] = target: horse ACE2 extracellular domain (residues 1-740) fused with the Fc domain of mouse IgG (horse) (UniProt F6V9L3)
# [7] = target: mink ACE2 extracellular domain (residues 1-740) fused with the Fc domain of mouse IgG (mink)
# [8] = target: monkey ACE2 extracellular domain (residues 1-740) fused with the Fc domain of mouse IgG (monkey) (UniProt F7AH40)
# [9] = target: pig ACE2 extracellular domain (residues 1-740) fused with the Fc domain of mouse IgG (pig) (UniProt K7GLM4)
# [10] = target: rabbit ACE2 extracellular domain (residues 1-740) fused with the Fc domain of mouse IgG (rabbit) (UniProt G1TEF4)
# [11] = target: raccoon dog ACE2 extracellular domain (residues 1-740) fused with the Fc domain of mouse IgG (raccoon dog) (UniProt B4XEP4)
# [12] = target: sheep ACE2 extracellular domain (residues 1-740) fused with the Fc domain of mouse IgG (sheep)
# [13] = target: wild Bactrian camel ACE2 extracellular domain (residues 1-740) fused with the Fc domain of mouse IgG (wild Bactrian camel)
substance,measurement,setting,value
SARS-CoV-2 Delta RBD (residues 319-541) (from UniProt P0DTC2 319-541) (domain or fragment),Kd,[1],381 nM
same,Kd,[2],49.6 nM
same,Kd,[3],35.6 nM
same,Kd,[4],200 nM
same,Kd,[5],66.2 nM
same,Kd,[6],79 nM
same,Kd,[7],288 nM
same,Kd,[8],16.5 nM
same,Kd,[9],64.4 nM
same,Kd,[10],58.3 nM
same,Kd,[11],124 nM
same,Kd,[12],61 nM
same,Kd,[13],233 nM
